In paper PMC11514452, “Stochastic nature and physiological implications of 5′-NAD RNA cap in bacteria” (Nucleic Acids Research, 2024) one finds Ki, Kd and K half data, which are given here for three compounds.

In series [1] the target is T1, NudC (Escherichia coli, UniProt P32664).
T1 construct: homodimer by known biology
T1 sequence (P32664 1-257): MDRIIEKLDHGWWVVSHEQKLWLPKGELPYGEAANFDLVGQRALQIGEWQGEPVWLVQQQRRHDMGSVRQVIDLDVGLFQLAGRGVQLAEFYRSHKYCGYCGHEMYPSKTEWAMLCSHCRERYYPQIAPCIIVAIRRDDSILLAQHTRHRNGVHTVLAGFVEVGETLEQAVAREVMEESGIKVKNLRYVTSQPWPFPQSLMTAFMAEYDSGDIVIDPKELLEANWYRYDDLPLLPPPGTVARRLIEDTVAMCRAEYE
Nature of the series: NAD-RNA de-capping in vitro, gel read-out, ppGpp titration. In kind it is biochemical. Particulars: read-out: inhibition constant.

Series [2] deals with 70S ribosome. Nature of the series: BLI. Particulars: tRNAfMet (2-fold molar excess), 10 mM Tris-HCl pH 7.4, 60 mM NH4Cl, RelE assay also 6 mM beta-mercaptoethanol, 37 C 10 min, BLI temperature not stated.
In series [3] the test system is 70S ribosome. Nature of the series: footprinting (RelE printing, ribosome titration). The settings on record: tRNAfMet, RelE toxin, 10 mM Tris-HCl pH 7.4, 60 mM NH4Cl, RelE assay also 6 mM beta-mercaptoethanol, 37 C 10 min, BLI temperature not stated.
[4] abbreviates: 10 mM Mg(OAc)2, 5'-NAD (first A replaced by NAD, start codon NAD-UG).
Setting [5] is: 10 mM Mg(OAc)2, 5'-triphosphate.

Consider `Nc1nc2c(ncn2[C@@H]2O[C@H](COP(=O)(O)OP(=O)(O)O)[C@@H](OP(=O)(O)OP(=O)(O)O)[C@H]2O)c(=O)[nH]1` [ppGpp], for which the Ki in series [1] is roughly 70 µM.
Turning to “AUGAGCACAAAAAAGAAACCAUUAACACAAGAGCAGCUUGAGGACGCACGUCGCCUUAAAGCAAUUUAUG [NAD-cI(1-70) leaderless mRNA]”, the Kd – broadly, the constant that tells how readily two partners part at equilibrium – in series [2] (setting [4]) came to 4.3 nM. Further, the K half in series [3] (setting [4]) was found to be 4.3 nM.
With “AUGAGCACAAAAAAGAAACCAUUAACACAAGAGCAGCUUGAGGACGCACGUCGCCUUAAAGCAAUUUAUG [ppp-cI(1-70) leaderless mRNA]”, in series [2] (setting [5]), the equilibrium dissociation constant (Kd) worked out at 3.5 nM. The compound also had a K half in series [3] (setting [5]) of 3.8 nM.
